# Numbering of substitutions follows the chain as printed. Names may count otherwise.
# T1: AAV1(Asp590Cys) virus particle (AAV1)
# T1 construct: Assembled particle of VP1, VP2 and VP3, all carrying the mutation; also called AAV1Cys; AAV1 Asp590Cys virions
# T1 chain: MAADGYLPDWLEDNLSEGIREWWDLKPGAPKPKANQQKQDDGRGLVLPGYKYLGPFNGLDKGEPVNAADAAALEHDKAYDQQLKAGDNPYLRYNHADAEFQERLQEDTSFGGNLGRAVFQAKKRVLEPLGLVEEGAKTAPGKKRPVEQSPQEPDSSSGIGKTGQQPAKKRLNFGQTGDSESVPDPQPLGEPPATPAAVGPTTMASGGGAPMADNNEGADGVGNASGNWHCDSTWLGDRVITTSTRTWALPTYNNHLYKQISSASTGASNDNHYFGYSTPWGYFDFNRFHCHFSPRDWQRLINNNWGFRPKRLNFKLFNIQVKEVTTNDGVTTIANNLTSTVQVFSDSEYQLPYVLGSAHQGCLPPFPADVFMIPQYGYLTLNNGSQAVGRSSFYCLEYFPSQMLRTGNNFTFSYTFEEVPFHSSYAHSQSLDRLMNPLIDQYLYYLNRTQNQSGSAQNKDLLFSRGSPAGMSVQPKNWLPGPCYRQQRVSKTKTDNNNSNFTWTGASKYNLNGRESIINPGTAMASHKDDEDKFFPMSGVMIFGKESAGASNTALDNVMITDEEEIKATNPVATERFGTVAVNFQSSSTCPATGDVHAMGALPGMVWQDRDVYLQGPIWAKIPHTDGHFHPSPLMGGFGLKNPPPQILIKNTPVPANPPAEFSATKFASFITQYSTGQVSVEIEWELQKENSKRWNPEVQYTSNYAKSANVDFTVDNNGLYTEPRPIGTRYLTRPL
# T2: PKD2 domain of AAVR, wild type (Pongo abelii (Sumatran orangutan) …, UniProt Q5RFR6 409-498)
# T2 construct: also called PKD2 wild type
# T2 sequence: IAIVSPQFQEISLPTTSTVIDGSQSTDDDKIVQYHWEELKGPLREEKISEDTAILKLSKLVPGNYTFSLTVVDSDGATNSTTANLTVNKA
# B1: msfGFP fused to PKD2(Ser425Cys) (other)
# chain: T2 sequence with S17C
# notes: also called monomeric variant of super folder GFP adaptor protein; not shown: monomeric variant of super folder GFP (msfGFP)
# B2: sfGFP-PKD2(Ser425Cys) adaptor fusion protein (other)
# chain: T2 sequence with S17C
# notes: On the virus it forms the AAV1(Asp590Cys)<>sfGFP CAR-V; also called PKD2Cys; sfGFP-PKD2(Ser425Cys) fusion polypeptide; not shown: superfolder GFP (sfGFP)
# B3: sfGFP-PKD2 fusion protein (wild type PKD2) (other)
# chain: T2 sequence
# notes: also called sfGFP-PKD2 adaptor protein; PKD2WT; not shown: superfolder GFP (sfGFP)
# B4: PKD2(V480E) mutant (receptor)
# chain: T2 sequence with V72E
# notes: also called PKD2(V480E) variant of AAVR; Val480Glu mutation
# B5: superfolder GFP fused to PKD2(Ser425Cys-Val480Glu) (other)
# chain: T2 sequence with S17C, V72E
# notes: also called sfGFP-PKD2(Ser425Cys-Val480Glu); not shown: superfolder GFP
# B6: AAV1 wildtype capsid (virus particle) (other)
# chain: T1 chain with C590D
# notes: Assembled virus particle: 60 monomers of VP1, VP2 and VP3 at about 1:1:10; VP2 and VP3 are N-terminally shorter forms of the same entry; also called AAV1WT; AAV1 capsid
# B7: superfolder GFP fused to PKD1(Ser356Cys) (other)
# chain: SAGESVQITLPKNEVQLNAYVLQEPPKGETYTYDWQLITHPRDYCGEMEGKHSQILKLSKLTPGLYEFKVIVEGQNAHGEGYVNVTVKPE
# notes: also called PKD1^S356C-derived AP; adaptor protein (38.2 kDa); not shown: superfolder GFP
# Key:
# [1] = molecular target: T1, AAV1(Asp590Cys) virus particle; assay: non-reducing Coomassie SDS-PAGE, covalent coupling of the PKD2(Ser425Cys) fusion with AAV1 D590C
# [2] = molecular target: T1, AAV1(Asp590Cys) virus particle; assay: SDS-PAGE of the mixtures, non-reducing (top, bottom left) and reducing with βME (bottom right); shows disulfide-linked adducts only
# [3] = molecular target: T3, AAV2 wildtype virus particle (AAV2, UniProt P03135 1-735); assay: SPR; AAV2 virus amine-coupled on a CM3 chip, increasing concentrations of the fusion protein
# T3 construct: Assembled particle of VP1, VP2 and VP3; The virus for SPR was commercially sourced; also called AAV2 wt
# [4] = molecular target: B6; assay: response-concentration plot on AAV1 capsid; method not named; PKD2(V480E) mutant
# [5] = molecular target: T4, AAV2(Gln589Cys) virus particle (AAV2, UniProt P03135 1-735); assay: anti-VP1/2/3 immunoblot of a non-reducing gel, coupling at 5 µM adaptor
# T4 construct: Assembled particle of VP1, VP2 and VP3
# [6] = molecular target: T1, AAV1(Asp590Cys) virus particle; assay: anti-VP1/2/3 immunoblot of a non-reducing gel, coupling at 3 µM adaptor in 1 mM TCEP
# [7] = molecular target: T2, PKD2 domain of AAVR, wild type; assay: response-concentration plot on AAV1 capsid; method not named; PKD2 wild type
# [8] = molecular target: B3; assay: SPR; AAV1 virus amine-coupled on a CM3 chip, increasing concentrations of the fusion protein
# [9] = molecular target: T5, AAV5(Gln697Cys) virus particle (AAV5); assay: anti-VP1/2/3 immunoblot of a non-reducing gel, coupling at 10 µM adaptor
# T5 construct: Assembled particle of VP1, VP2 and VP3; also called AAV5^Q697C
binder,measurement,setting,value
B1,binding result,[1],binds
B2,binding result,[2],binds
B3,Kd,[3],~6 µM
B4,Kd,[4],6.13 µM
B5,binding result,[5],binds
same,binding result,[6],binds
B6,Kd,[7],12.2 µM
same,Kd,[8],~2 µM
B7,binding result,[9],binds

# From patent US20250002938A1 (FRANCIS CRICK INSTITUTE, published 2025)
